Patent publication US20050238723A1, “Method of producing hydroxyalkyl starch derivatives” (priority 2002, published 2005)

Tested on: normocythaemic mouse
Test: EPO-bioassay in the normocythaemic mouse system (European Pharmacopeia)
Assay type: in vivo
Experimental: Quantitative determination of EPO protein was performed by measuring UV absorption at 280 nm according to the Eur. Phar. (European Pharmacopeia 4, Monography January 2002: 1316: erythropoietin concentrated solution) in a cuvette with 1 cm path length. In addition, EPO was quantitated by applying a RP-HPLC method using a RP-C4 column (Vydac Protein C4, Cat.# 214TP5410, Grace Vydac, Calif., US); the HPLC method was calibrated using the erythropoietin BRP 1 reference standard (European Pharmacopeia, Conseil de l'Europe B.P. 907-F67029, Strasbourg Cedex 1).
The EPO-bioassay in the normocythaemic mouse system indicates was performed according to the procedures described in the European Pharmacopeia; the laboratory that carried out the EPO assay was using the International BRP EPO reference standard preparation. For the HES-modified EPO A2 preparation a mean value for the specific activity of 294,600 units per mg EPO of protein was determined indicating an approximately 3-fold higher specific activity when compared to the International BRP EPO reference standard preparation that was included in the samples sent for activity assays.
In vivo activity determinations are performed in normocythemic mice by measuring the increase of reticulocytes after 4 days after animals received the foreseen dose of EPO or modified EPO forms. Assays are performed using the BRP EPO standard which is calibrated against the WHO EPO standard in the polycythemic mouse assay. EPO samples are diluted in phosphate buffered saline containing 1 mg/ml of bovine serum albumin (Sigma).
0.5 ml of the EPO test solution in Dulbecco's buffered saline (corresponding to an EPO protein equivalent of a 100, 80, 40 or 20 IU/ml of the BRP standard EPO) are infected subcutaneously per animal. Blood samples are taken after 4 days after injection and reticulocytes are stained with acridine orange; quantitation of reticulocytes is performed by flow-cytometry by counting a total of 30,000 blood cells within 5 hours after the blood sample was taken (see Ph. Eur, 2000, Erythropoietini solutio concentrata, 1316, pages 780-785) and European Pharmacopoeia (1996/2000, attachment 2002).

[1] = sample diluted with 4 volume of PBS

Row | Substance | Calculated specific activity of EPO sample (basedon A280 nm and RP-HPLC determination) (sample as such) | Calculated specific activity of EPO sample (basedon A280 nm and RP-HPLC determination) [1]
1 | BRP EPO standard: erythropoietin BRP reference standard of the European Pharmacopeia [reference compound] | 86,702 U/mg | 81,200 U/mg
2 | Control EPO K2: control incubation of unmodified EPO-GT-1 with unmodified HES; Q-Sepharose fraction eluted with high salt | 121,410 U/mg | 114,100 U/mg
